Laboratory results: PMC7933679

Target: Deinococcus radiodurans MazF (MazF-dr) (Deinococcus radiodurans)
Experiment: crystal structure; apo MazF-dr with N-terminal 6x His-tag, 5 mg/mL, sitting-drop vapor diffusion at 293 K; 0.2 M ammonium sulfate, 0.1 M Bis-Tris pH 5.5, 25% w/v PEG 3350; space group P4(3)2(1)2, dimer in the asymmetric unit; 1.3 Å

stoichiometry N: 2
Substance: Deinococcus radiodurans MazF (MazF-dr) (enzyme)
